Experimental data as given in patent US8962819B2, “Anti-C5 alpha antibodies” (Adienne S.A., priority 2002, dated 2015).
Entries after “also recorded” stand apart in the source; their conditions may differ.

B1: TS-A12: human anti-C5 single chain scFv antibody clone selected from a naive phage library (protein, listed as Homo sapiens)
scFv: DIRMTQSPDSLAVSLGERATINCKSSQSVLYSSNNKNYLAWYQQKPGQPPKLLIYWASTRESGVPDRFSGSGSGTDFTLTISSLQAEDVAVYYCQQYYSTPQLTFGGRTKVDIKSGGSTITSYNVYYTKLSSSGTQVQLQQSEGGVVQPGRSLRLSCAASGFTFSSYGMNWVRQAPGKGLEWVSYISSSSSTIYYADSVKGRFTISRDNSKNTLYLQMNSLRAEDTAVYYCARGPGMDVWGQGTTVTVSS
B2: C5A: C5a fragment; human recombinant C5a component purchased from SIGMA-ALDRICH (protein, UniProt P01031 678-751, looked up)
C5a anaphylatoxin: TLQKKIEEIAAKYKHSVVKKCCYDGACVNNDETCEQRAARISLGPRCIKAFTECCVVASQLRANISHKDMQLGR
modifications: C5a anaphylatoxin
notes: C5a fragment; human recombinant C5a component purchased from SIGMA-ALDRICH

What was measured:
[1] = tested on: binding of the TS-A12/22 antibody to C5; assay: Competitive ELISA on solid-phase C5 after pre-incubation of TS-A12/22 with peptide; design: species or system human; conditions: 800 ng CS5 or 3.5 μg C5a fragment; highest concentrations used
Protocol: Binding of the antibody, pre-incubated in different conditions, was assessed by immuno-enzymatic assay using C5 on solid phase.
This peptide corresponds to region 727-744 of the mature protein and comprises the cleavage site of C5 convertase (indicated by the arrow) between […] according to SwissProt numbering for human C5 (SEQ ID P01031). The peptide was used in a competitive ELISA assay on the C5 protein on solid phase. Before binding to the solid phase, the TS-A12/22 antibody was pre-incubated with the PSA-18 peptide, corresponding to amino acids 727-744 of the C5 component, or with an unrelated peptide of sequence […] (SEQ ID NO:16 of sequence listing) corresponding to a fibronectin derived peptide termed CS5.

factor C5 = target: T1, factor C5 (Homo sapiens, UniProt P01031); assay: Surface plasmon resonance (BIACORE 2000) on C5 immobilized on chip; format: binding; conditions: read-out: KD calculated
T1 construct: C5 alpha and beta subunits were obtained by incubating 50 μg of C5; purchased Quidel
Protocol: The binding affinity of the Tsa-12 antibody, purified by means of FPLC on Superdex 75 (Pharmacia), for factor C5 was measured by means of BIACORE™ 2000 (a system that generates unique data on the interactions between proteins and other molecules). The microchip (CM5, Biacore) was prepared by direct conjugation of the C5 antigen with amines (20 μg/ml in 10 mM Sodium Acetate pH 4.5). The final level of immobilisation turned out to be approximately 1000 RU (Resonance Units). Association and dissociation of antibody molecules from the bio-chip were measured using an optical detection system (Surface Plasmon Resonance). The analysis was carried out at 25° C., at a flow of 15 μl/min, using 4 different scFv concentrations in the range comprised between 100-300 nM, in PBS, 0.005% P20 (Biacore). The binding curves were interpolated 1:1 according to the model of Langmuir, using the dedicated software termed BIAevaluation (version 3.5) with correction for the mass transfer. In order to increase the affinity, the TS-A12 antibody was subjected to substitution (“shuffling”) of the VL light chains. For this purpose the phagemid DNA was cut with BssHII and SaII to excise the VL region. This region was substituted with all the repertoire of VL chains of a preimmune library (Sblattero, D., and Bradbury A., 2000, Nat. Biotechnol. 18:75) that was prepared with same enzymes. […]

C5 [2] = target: T2, C5 (Homo sapiens, UniProt P01031); assay: ELISA of C5a released after cleavage of C5 by C5 convertase; format: biochemical; conditions: FIG. 1A, classical pathway
T2 construct: C5 alpha and beta subunits were obtained by incubating 50 μg of C5; purchased Quidel
Protocol: (§1) Panel A) The ELISA assay measures the amount of C5a fragment released in the supernatant after enzymatic cleavage of C5, using antibodies anti-C5 as described in example 6. […] Sheep erythrocytes sensitised with antibodies and coated until the C3b (EAC1-3b) complement step were added to the mixture of TS-A12 or TS-A12/22 and C5, and the mixture was further incubated for 30 minutes at 37° C. (panel B).
(§2) The obtained anti-C5 scFv fragments were further characterised for their ability to inhibit the hemolytic activity of C5 or, in other words, to block conversion of the C5 component to C5a. […] At the end of this procedure, cell lysis was measured as percentage of the control of total lysis in distilled H2O (see FIG. 1, panel B). The inhibition of C5a and TCC production by the scFv TS-A12 and TS-A12/22 was measured by means of ELISA using the monoclonal antibody 17/5 as the capture antibody and antibody G25/2 as detection antibody according to what has been described in Opperman et al., 1991, Complement Inflamm. […] The presence of TCC was measured using antibody aE11 as the capture antibody and a biotinylated anti-C5 antibody (SIGMA-ALDRICH®) followed by alkaline phosphatase-conjugated streptavidin, as described by Tedesco et al. (1997, J Exp. Med. 185:1619).

C5 [3] = target: T2, C5; assay: Haemolytic assay / TCC ELISA with EAC1-3b sheep erythrocytes and C5 depleted serum; format: biochemical; conditions: FIG. 1B
Protocol: as §1
Sheep erythrocytes (SBRC: Sheep red blood cells) were sensitised with sub-agglutinating amounts of rabbit IgM (EA). […]
as §2

T2 sequence (P01031 678-1676 limits assumed): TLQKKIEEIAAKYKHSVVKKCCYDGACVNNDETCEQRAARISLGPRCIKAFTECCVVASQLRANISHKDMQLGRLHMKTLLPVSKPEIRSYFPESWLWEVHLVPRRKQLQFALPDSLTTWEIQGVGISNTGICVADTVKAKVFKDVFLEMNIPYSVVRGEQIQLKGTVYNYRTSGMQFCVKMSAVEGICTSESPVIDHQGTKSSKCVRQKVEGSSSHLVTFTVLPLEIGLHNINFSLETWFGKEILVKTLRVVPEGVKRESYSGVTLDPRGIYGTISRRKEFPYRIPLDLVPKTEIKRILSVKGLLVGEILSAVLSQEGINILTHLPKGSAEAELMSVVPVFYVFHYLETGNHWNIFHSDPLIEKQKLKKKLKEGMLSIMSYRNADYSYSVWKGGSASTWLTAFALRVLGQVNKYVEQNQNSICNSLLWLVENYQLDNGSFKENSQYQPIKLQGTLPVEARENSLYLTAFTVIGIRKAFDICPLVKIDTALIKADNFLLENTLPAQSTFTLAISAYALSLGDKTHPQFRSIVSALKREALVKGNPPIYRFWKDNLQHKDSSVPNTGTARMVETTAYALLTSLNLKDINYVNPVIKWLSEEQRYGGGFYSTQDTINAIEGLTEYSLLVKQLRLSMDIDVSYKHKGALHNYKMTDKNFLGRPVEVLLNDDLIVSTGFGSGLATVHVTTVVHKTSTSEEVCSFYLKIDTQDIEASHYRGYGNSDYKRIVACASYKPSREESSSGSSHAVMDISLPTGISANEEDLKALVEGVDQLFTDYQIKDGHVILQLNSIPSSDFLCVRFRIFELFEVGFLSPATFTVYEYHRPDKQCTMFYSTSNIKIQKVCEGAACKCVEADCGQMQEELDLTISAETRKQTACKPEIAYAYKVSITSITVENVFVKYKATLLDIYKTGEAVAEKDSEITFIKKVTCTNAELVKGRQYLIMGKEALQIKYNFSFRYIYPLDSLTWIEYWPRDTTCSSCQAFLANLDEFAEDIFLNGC
T2 sequence (P01031 19-673 partner limits assumed): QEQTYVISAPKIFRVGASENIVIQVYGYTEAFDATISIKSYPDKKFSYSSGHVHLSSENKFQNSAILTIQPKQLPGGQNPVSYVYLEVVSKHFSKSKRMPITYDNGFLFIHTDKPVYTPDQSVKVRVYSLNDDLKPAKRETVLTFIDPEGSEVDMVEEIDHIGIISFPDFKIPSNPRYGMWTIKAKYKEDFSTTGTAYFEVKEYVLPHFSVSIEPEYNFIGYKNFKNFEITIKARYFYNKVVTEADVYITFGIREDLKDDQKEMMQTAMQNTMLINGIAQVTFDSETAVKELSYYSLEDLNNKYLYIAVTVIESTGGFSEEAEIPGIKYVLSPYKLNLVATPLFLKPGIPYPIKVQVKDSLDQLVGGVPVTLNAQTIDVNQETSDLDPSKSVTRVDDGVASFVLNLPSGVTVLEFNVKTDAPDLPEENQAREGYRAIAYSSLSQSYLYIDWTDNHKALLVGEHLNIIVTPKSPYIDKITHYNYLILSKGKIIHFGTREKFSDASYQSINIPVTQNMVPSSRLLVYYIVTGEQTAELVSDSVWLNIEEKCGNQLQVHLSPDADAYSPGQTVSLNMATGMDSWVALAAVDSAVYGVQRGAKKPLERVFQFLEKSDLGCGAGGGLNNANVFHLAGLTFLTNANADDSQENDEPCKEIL
binding of the TS-A12/22 antibody to C5, sequence (P01031 678-1676 partner limits assumed, one chain of several): as the sequence (P01031 678-1676 limits assumed) above
binding of the TS-A12/22 antibody to C5, sequence (P01031 19-673 partner limits assumed, one chain of several): as the sequence (P01031 19-673 partner limits assumed) above
T1 sequence (P01031 678-1676 limits assumed): as the sequence (P01031 678-1676 limits assumed) above
T1 sequence (P01031 19-673 partner limits assumed): as the sequence (P01031 19-673 partner limits assumed) above

| Molecule | inhibition of binding of TS-A12/22 to C5 (in words) [1] | Kd (factor C5) | inhibition of formation of C5a (C5 [2]) | inhibition of formation of TCC (C5 [3]) |
| --- | --- | --- | --- | --- |
| GEEIQIGHIPREDVDYHLYP (PEPTIDE (1)..(20) fibronectin derived peptide; listed as Homo sapiens) [CS5, unrelated fibronectin derived peptide] | ineffective; also recorded: NO inhibition | – | – | – |
| B1 | – | 200 nM | inhibit almost completely | inhibit almost completely |
| B2 | NO inhibition | – | – | – |
